Reference: the supplement of paper PMC9170038

Tested on: MS2 coat protein
Test: apparent KD of MS2 coat protein; designed switch direction (-1 OFF switch, 1 ON switch): 1; higher = weaker reporter binding
How it was run: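 On Illumina chips, designed RNA switches with common flanks were made by stalled E. coli RNA polymerase. Titrations with SNAP-549-labelled MS2 coat protein, doubling from 0.7 or 1.5 nM to 3 µM, were done with no input, with 200 uM small-molecule ligand, or with an oligonucleotide input. Apparent KD is the median per design over clusters, from curve fits of normalised cluster fluorescence.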

[1] = input ligand: microRNA oligo, concentration not stated
[2] = Eterna round: R95, input ligand: FMN 200 uM
[3] = Eterna round: R95, input ligand: microRNA oligo, concentration not stated
[4] = Eterna round: R95, input ligand: none

Sequence	apparent KD of MS2 coat protein (input ligand: FMN 200 uM)	apparent KD of MS2 coat protein [1]	apparent KD of MS2 coat protein (input ligand: none)	apparent KD of MS2 coat protein [2]	apparent KD of MS2 coat protein [3]	apparent KD of MS2 coat protein [4]
AAACGGCCCAACGAAGGGCCACAUGAGGAUCACCCAUGUACAUAGGAUAUCACGCCAACAAAGCGUGAGAAGGGUGAUUAAAAC [Lezaer] (Eterna round: R96, puzzle: Same State NG 3)	270 nM	11.6 nM	163 nM			
AAAGAAACAUGAGGAUCACCCAUGUACCGCGGAAUGUGUGCACAGGAUAUGUACAGCUUUUGCUUACAGAAGGGUGCGCCCGUG [Enorso] (Eterna round: R96, puzzle: Same State NG 3)	20.8 nM	38.7 nM	70 nM			
AAAGAUGGACAUGAGGAUCACCCAUGUGGAAAGUGAACAAGCUUUUGCUCGUGACAAAUGAACAAUCCAAUCCUAAA [mksensor] (puzzle: Sensor for hsa-mir-208a version 2)				26.3 nM	24.5 nM	25 nM
AAAGGAUGAUGUUACAUGAGGAUCACCCAUGUUGUGAUAACUAAGGAUAUGUGUUUAACCAGUUAAUAGAAGGUAGGAUCAUAA [AK SSNG3-V2-4] (Eterna round: R96, puzzle: Same State NG 3)	168 nM	97.4 nM	124 nM			
AACAAUCUAUCUGAGGAUAUCAUGAAAUAAACAUGAGGAUCACCCAUGUGCAGGAUAACUGCAUAUGAGAAGGCAGAUAGAUUGA [salish99_ss2_r3_041] (puzzle: Same State 2)				57.3 nM	661 nM	656 nM
AACACACAUGAGGAUCACCCAUGUACCGAAAUCACAGGAUAUACAUAACUGAAUAACAUUGUAGAAGGGUGGCCGG [Enorerteso] (puzzle: Same State 1)				23.7 nM	65.7 nM	91.4 nM
AACAGUCGGCGAGGAUAUGGACGGACAGGCUUGCCUGUGCGGCUCACAUGAGGAUCACCCAUGUUCUAGAAGGCGCCACUGAGA [Atteve] (Eterna round: R96, puzzle: Same State NG 2)	21.3 nM	50 nM	81.7 nM			
AACAGUCGGCGAGGAUAUGGACGUACGGACUAACCCAUACGGCUCACAUGAGGAUCACCCAUGUUCUAGAAGGCGCCACUGAAA [Soisce] (Eterna round: R96, puzzle: Same State NG 2)	18.1 nM	22.8 nM	66.7 nM			
AACUAUCUAUCUCAGGAUAUCAUGUCAAAGACAUGAGGAUCACCCAUGUACCAGGAAACUGGUUAUGAGAAGGGAGAUAGAUAGA [Mat - Same State 2 - Mod - D38] (puzzle: Same State 2)				92.5 nM	87.7 nM	97 nM
AAGAAACAUGAGGAUCACCCAUGUCGAGAGAGACGAGGAUAUCUGAAUCGAUUAGAUUACGGAGAAGGCGUGAAAA [Same State 1.2 (Same State of Confusion2 - minimal change )] (Eterna round: R96, puzzle: Same State 1)	22.1 nM	22 nM	27 nM			
AAGAAACAUGAGGAUCACCCAUGUGAUAAUAUGGGAGGAUAUACAAAGACGAAAGUCGAAGUAGAAGGCCUAUGAA [Garnet 43] (Eterna round: R96, puzzle: Same State 1)	46.4 nM	50.9 nM	68.7 nM			
AAGUAACAUGAGGAUCACCCAUGUGAGGUGAGCGUAGGAUAUCGAGAAGGAAGGGUGGAGCGAGAAGGACGAGAGG [JR_SS1_Sub0100] (puzzle: Same State 1)				191 nM	401 nM	270 nM
AAGUUAAGCUUUUUGUUCUGCCUAUUCCAACAUGAGGAUCACCCAUGUAGUCUGACGAUUGUGUGUGUAGUUGAGAU [JR_SHM208A_Sub028] (puzzle: Sensor for hsa-mir-208a)				51.8 nM	63.5 nM	57.9 nM
AAGUUACUAUCUCAGGAUAUCAUGUCAAAGACAUGAGGAUCACCCAUGUACCAGGAAACUGGUUAUGAGAAGGGAGAUAGUAACU [Mat - Same State 2 - Mod - D54] (puzzle: Same State 2)				156 nM	204 nM	819 nM
AAUCGUUUAAUAGGAUAUCGCUAUACAUGAGGAUCACCCAUGUUUACCACGCUGGUUUUUCGUACCGAGAAGGAUUCUGAUGAU [JL JR sub007 mod 8] (Eterna round: R96, puzzle: Same State NG 2)	36.6 nM	26.5 nM	39.9 nM			
AAUCGUUUGAUAGGAUAUCGCUAUACAUGAGGAUCACCCAUGUUUACCACACUGGUUUUUCGUACCGAGAAGGAUUCUGAUGAU [JL JR sub007 mod 9] (Eterna round: R96, puzzle: Same State NG 2)	40.2 nM	33.1 nM	43.5 nM			
AAUUAAGAUCAAGGAUAUCACGUCGAAUAGACGUGAGAAGGUGAUAAUUACAUGAGGAUCACCCAUGUAUAACAUGAAUUAAUU [SSNG1/9-B1] (Eterna round: R96, puzzle: Same State NG 1)	30 nM	24.8 nM	38 nM			
AAUUAAUUAAUACAUGAGGAUCACCCAUGUAAUUAUUAGAUCAAGGAUAUCAGCUCGUUUAGAGCUGAGAAGGUGAUCACAUGU [SSNG3/18-A3] (Eterna round: R96, puzzle: Same State NG 3)		211 nM				
AAUUCACGAGCACAGGAUAUGCUUGCCAACACAUGAGGAUCACCCAUGUCGGGCUACGAAUAAGAGCAGAAGGGUGACUCAUGAU [Atesusgela] (puzzle: Same State 2)				16.8 nM	19.2 nM	13.9 nM
AAUUGUUUCUGAGGAUAUCAGUAGUAUGCCAAUUGAGAAGGCAGUACAUGAGGAUCACCCAUGUUGUGGUUUGAUAGAAUGAUA [JR_SSNG1_Sub002] (Eterna round: R96, puzzle: Same State NG 1)	170 nM	143 nM	181 nM			
ACAAGCUUUUUGCUCCUCUUAUGUCCGAAACAUGAGGAUCACCCAUGUAUAGAUUGUGUGUUGUUGUAGAUGCAAGA [JR_SHM208A_Sub061] (Eterna round: R96, puzzle: Sensor for hsa-mir-208a)	73.8 nM	63.4 nM	74.1 nM			
